# Laboratory results from PMC4132792, “Engagement of Nucleotide-binding Oligomerization Domain-containing Protein 1 (NOD1) by Receptor-interacting Protein 2 (RIP2) Is Insufficient for Signal Transduction*” (The Journal of Biological Chemistry, 2014).
# Substitutions are numbered along the chain they refer to. Names may count otherwise.
# B1: His6-tagged recombinant NOD1 CARD (residues 15-110), wild type (domain or fragment, human, UniProt Q9Y239-1 15-110, looked up)
# chain: ESHPHIQLLKSNRELLVTHIRNTQCLVDNLLKNDYFSAEDAEIVCACPTQPDKVRKILDLVQSKGEEVSEFFLYLLQQLADAYVDLRPWLLEIGFS
# notes: NOD1 CARD domain, human, residues 15-110; the dimer is stabilised by an interprotomer disulfide bond through Cys-39 (from the cited crystal structures); also called wild-type NOD1 CARD; wild-type NOD1
# B2: His6-tagged recombinant NOD1 CARD (residues 15-110) E53K (domain or fragment, human, UniProt Q9Y239-1 15-110, looked up)
# chain: B1 chain with E39K
# notes: NOD1 CARD domain, human, residues 15-110, E53K
# B3: His6-tagged recombinant NOD1 CARD (residues 15-110) A55V (domain or fragment, human, UniProt Q9Y239-1 15-110, looked up)
# chain: B1 chain with A41V
# notes: NOD1 CARD domain, human, residues 15-110, A55V (a polymorphism)
# B4: His6-tagged recombinant NOD1 CARD (residues 15-110) D48K (domain or fragment, human, UniProt Q9Y239-1 15-110, looked up)
# chain: B1 chain with D34K
# notes: NOD1 CARD domain, human, residues 15-110, D48K
# B5: His6-tagged recombinant NOD1 CARD (residues 15-110) E56K (domain or fragment, human, UniProt Q9Y239-1 15-110, looked up)
# chain: B1 chain with E42K
# notes: NOD1 CARD domain, human, residues 15-110, E56K
# B6: His6-tagged recombinant NOD1 CARD (residues 15-110) N43S (domain or fragment, human, UniProt Q9Y239-1 15-110, looked up)
# chain: B1 chain with N29S
# notes: NOD1 CARD domain, human, residues 15-110, N43S (a rare polymorphism)
# Target: the molecule itself
# Assay: SEC; Superdex 75 HiLoad 16/60, 25 mM sodium phosphate, 100 mM NaCl, no reducing agent; monomer and dimer
row,Protein,stoichiometry N
1,B1,2
2,B2,2
3,B3,2
4,B4,2
5,B5,2
6,B6,2
